Test [1] deals with T1, Cyno PD-1-Fc tag (Sino Biological Inc. Cat#90311-CO2H) (cynomolgus monkey, UniProt B0LAJ3 25-170).
T1 construct: Bought Fc fusion; also called PD-1 of cynomolgus monkey; Cynomolgus monkey PD-1
As to the kind of experiment: ELISA, Cyno PD-1-Fc coated at 2 ug/ml, antibody titrated, detected with anti-human Ig kappa-HRP. As to the method: To determine binding to PD-1 of cynomolgus monkey, Cyno PD-1—Fc tag (Sino Biological Inc. Cat#90311-CO2H) was diluted in PBS to 2 ug/ml, and 100 ul/well was used to coat an ELISA plate (Costar, Cat#3590, high binding), 4° C. overnight. The plate was decanted and blocking solution (eBioscience, ELISA/ELISPOT Diluent, Cat#00-4202-55) was added, 200 ul/well. After 1 hour incubation at room temperature, the plate was washed with PBST three times. The testing PD-1 antibody was diluted in blocking buffer to 0, 0.001, 0.01, 0.1, 1.10 ug/ml and added to the plate, 100 ul/well. The plate was incubated 1 hour at room temperature and then washed four times with PBST. Anti-Hu IgG-HRP (goat-anti-human Ig kappa-HRP, Millipore, Cat# AP502P) at 1:4000 dilution was added to the plate, 100 ul/well. The plate was incubated 1 hour at room temperature followed by washing with PBST four times. The TMB substrate solution was added 100 ul/well. The color developed for 15 minutes and 50 ul/well of 1M H2SO4 was added to terminate the reaction. Absorbance at 450 nm was determined in FlexStation 3 ELISA reader.

In test [2] the target is T2, Human PD-1-His tag protein (Sino Biological Inc. Cat#10377-H08H-100) (human, UniProt Q15116 25-167).
T2 construct: Bought protein; not shown: His tag
T2 sequence (Q15116 25-167 limits assumed): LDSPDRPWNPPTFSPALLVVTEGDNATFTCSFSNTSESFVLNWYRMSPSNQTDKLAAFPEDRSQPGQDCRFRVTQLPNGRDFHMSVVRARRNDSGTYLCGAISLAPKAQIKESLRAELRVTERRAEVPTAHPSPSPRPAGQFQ
As to the kind of experiment: ELISA, antibody coated at 1 ug/ml, PD-1-His titrated, detected with anti-His-HRP; antibody coated on the plate, human PD-1-His titrated. The procedure: (§1) The PD-1 antibody sample was diluted in PBS to 1 ug/ml and was coated in an ELISA plate (Costar, Cat#3590, high binding) 100 ul/well, 4° C. overnight. The plate was decanted and blocking solution (eBioscience, ELISA/ELISPOT Diluent, Cat#00-4202-55) was added 200 ul/well. After 1 hour incubation at room temperature, the plate was washed with PBST three times. […] The plate was incubated 1 hour at room temperature and then washed four times with PBST. Anti-His-HRP (Genscript Cat#A00612) at 1:2000 dilution was added to the plate 100 ul/well. The plate was incubated 1 hour at room temperature followed by washing with PBST four times. The TMB substrate solution was added 100 ul/well. Let the color develop for 15 minutes and add 50 ul/well 1M H2SO4 to terminate the reaction. Absorbance at 450 nm was determined in FlexStation 3 ELISA reader.

The target in test [3] is T3, rhesus monkey PD-1-His (Sino Biological Inc. Cat#90305-KO8H-100) (rhesus monkey, UniProt B0LAJ2 25-170).
T3 construct: Bought protein; also called Rehsus monkey PD-1
T3 sequence (B0LAJ2 entry or part of it limits assumed): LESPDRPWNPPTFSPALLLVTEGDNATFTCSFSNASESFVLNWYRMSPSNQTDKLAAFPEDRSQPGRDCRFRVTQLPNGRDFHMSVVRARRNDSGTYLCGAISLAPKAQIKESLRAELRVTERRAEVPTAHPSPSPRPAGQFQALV
Briefly: ELISA, antibody coated at 1 ug/ml, PD-1-His titrated, detected with anti-His-HRP. As to the method: as §1

Test [4] deals with T2, Human PD-1-His tag protein (Sino …). As to the kind of experiment: ELISA, antibody coated at 1 ug/ml, human PD-1-His titrated (the concentration axis is that of PD-1-His), detected with anti-His-HRP. The procedure: as §1
Test [5] has as its target T4, Human PD-1 (captured on an anti-His IgG Biacore chip) (human, UniProt Q15116 25-167).
T4 construct: It may be the same Sino Biological PD-1-His protein as m3; also called PD-1 antigen; not shown: His tag implied by capture on anti-His IgG
As to the kind of experiment: SPR (Biacore), human PD-1 captured on anti-His IgG chip, SSI-361 injected at 3.125-50 nM, 1:1 model. As to the method:
Flow cells of a Series S CMS sensor chip (GE Healthcare Life Sciences) were activated with freshly mixed 50 mmol/L NHS and 200 mmol/L EDC for 360 seconds (10 μL/min). Then, anti-His IgGs, in 10 mmol/L NaAC (pH 5.0) was injected onto the activated flow cell (10 μL/min) for 300 seconds (10 μL/min) with HBS-EP+(10 mM HEPES, 150 mM NaCl, 3 mM EDTA and 0.05% P20, pH 7.4) as the running buffer. The remaining active coupling sites were blocked with a 420 second injection of 1 mol/L ethanolamine (10 μL/min). This procedure was repeated for 2 times to immobilized protein on 2 flow cells individually. Low flow rate overnight was maintained for the equilibrium of the immobilized proteins. Human PD-1 was captured on a flow cell 2 (10 μL/min). […] Flow cell 1 without captured antigen was used as reference flow cell. To remove the tested antibody and antigen from the surface, 10 mM glycine-HCl pH 1.5 was injected for 60s (10 μL/min, flow cell 1-2). The above procedures were repeated for each concentration of serially diluted tested antibody. The KD value (Table 1) was evaluated using Biacore X100 evaluation software 2.0 with 1:1 interaction binding model. Flow cell 1 was used as reference flow cell for data subtraction.

In test [6] the target is T3, rhesus monkey PD-1-His (Sino Biological …). As to the kind of experiment: ELISA, antibody coated at 1 ug/ml, rhesus monkey PD-1-His titrated (the concentration axis is that of PD-1-His), detected with anti-His-HRP. The procedure: as §1

T4 sequence (Q15116 25-167): as the sequence (Q15116 25-167 limits assumed) above
T1 sequence (B0LAJ3 entry or part of it limits assumed): as the sequence (B0LAJ2 entry or part of it limits assumed) above, with P10A, R67Q, Q75R counted along it

B1: SSI-361 (humanized SHB-617 in human IgG4 S228P/kappa) (antibody, V domains shown)
VH: QVTLKESGPALVKPTQTLTLTCTFSGFSLSTSGTCVSWIRQPPGKALEWLATICWEDSKGYNPSLKSRLTISKDTSKNQAVLTMTNMDPVDTATYYCARREDSGYFWFPYWGQGTLVTVSS
VL: NIQMTQSPSSLSASVGDRVTITCKAGQNVNNYLAWYQQKPGKAPKVLIFNANSLQTGVPSRFSGSGSGTDFTLTISSLQPEDFATYYCQQYNSWTTFGGGTKVEIKR
notes: Full human IgG4 (hinge S228P, EU numbering)/kappa, expressed in HEK293 or CHO cells; also called PD-1 Ab01
For B1, the EC50 in test [1] turned out to be 0.08 nM; in test [2], 0.33 nM; in test [3], 0.39 nM. Further, the “EC50 (read off the curve)” value in test [1] was about 0.01 µg/mL; in test [4], about 0.03 µg/mL; in test [6], about 0.05 µg/mL. This molecule also gave a Kd in test [5] of 5.07 nM. Moreover, the koff in test [5] came out at 0.00117 s⁻¹. In addition, in test [5], the kon came to 230000 M⁻¹ s⁻¹.

Values taken from US20180346569A1 (LYVGEN BIOPHARMA, published 2018).
